Experimental findings from US20070060518A1 (MANNKIND, published 2007) are described below.

Read-outs that look alike come from different tables or passages of the source. Square brackets hold non-standard residues; d marks the D form. Ends that are not written are not given here. Phe(4-NO2) = N[C@@H](Cc1ccc([N+](=O)[O-])cc1)C(=O)O; Phg = N[C@H](C(=O)O)c1ccccc1; Nle = CCCC[C@H](N)C(=O)O; Nva = CCC[C@H](N)C(=O)O; Abu = CC[C@H](N)C(=O)O

Experiment [1] concerns the target T1, HLA-A*0201 on T2 cells (human).
T1 construct: whole, on cells; also called HLA-A2
Nature of the experiment: T2 cell stability assay, flow cytometry.

Experiment [2] addresses T1, HLA-A*0201 on T2 cells. Description: T2 cell binding assay, flow cytometry. In general terms: Flow cytometry measures light scatter and fluorescence of single cells or particles in a stream.
The target in experiment [3] is T1, HLA-A*0201 on T2 cells. Description: T2 cell binding assay, flow cytometry. This is another data set of the same source.
In experiment [4] the target is T1, HLA-A*0201 on T2 cells. Description: T2 cell stability assay, flow cytometry. The source holds these as a separate data set.
For experiment [5], the target named is T2, HLA-A*0201 class I monomer on avidin-coated plates (iTopia Epitope Discovery System) (human).
T2 construct: Bought kit (Beckman Coulter); also called A0201 restricted MHC Class 1 molecules; MHC monomer
Nature of the experiment: iTopia off-rate assay (FIG. 20).
Description: (§1) Avidin-coated microtiter plates containing class I monomer loaded with a so-called placeholder peptide were used to evaluate peptide binding, affinity and off-rate. […] Assay buffers, anti-MHC-FITC mAb and beta2-microglobulin and control peptides were also supplied with the kits. Binding Assay:
(§2) The plates were then incubated on the allele-specific monomer plates at 37° C. The plates were measured at multiple time points (0, 0.5, 1, 1.5, 2, 4, 6 and 8 hrs) for relative fluorescence intensity. The time required for 50% of the peptide to dissociate from the MHC monomer is defined as the T1/2 value (hrs).

Experiment [6] has as its target T2, HLA-A*0201 class I monomer on …. Nature of the experiment: iTopia off-rate assay (FIG. 21).
Description: as §1, §2
Experiment [7] shares this target. Description: iTopia affinity assay (FIG. 19).
Excerpt: as §1
For experiment [8] the target is unchanged. Nature of the experiment: iTopia assays (FIG. 19).
Excerpt: as §1
This assay measures the ability of individual peptides to bind HLA molecules under standardized optimal binding conditions. Monomer-coated plates were first stripped, releasing the placeholder peptide and leaving only the MHC heavy chain bound to the plate. Test peptides were then introduced under optimal folding conditions, along with the anti-MHC-FITC mAb. […] The anti-MHC-FITC mAb binds preferentially to a refolded MHC complex. Therefore, the fluorescence intensity resulting from each peptide was related to the peptide's ability to form complex with MHC molecule. Each peptide's binding was evaluated relative to the positive control peptide provided in the kit, and the results were expressed “% binding”.
Experiment [9] has as its target T1, HLA-A*0201 on T2 cells. Description: T2 cell binding assay, flow cytometry. The source holds these as a separate data set.

Turning to FVS[Nva]KIFYV (also called FVS(Nva)KIFYV) [SSX2 41-49 (K41F, A42V, E44Nva)], the “Stability (T1/2)” value in experiment [1] was greater than 24 h. Also, in [2], the midpoint of the response, the EC50, lay at 3.8 µM and the “Relative affinity (1/RA)” value was 3.9.
Regarding FVSEKIFYV [SSX2 41-49 (K41F, A42V)], in [3], the EC50 – broadly, the concentration that produces a half-maximal response – is 4.67 µM and the “Relative affinity (1/RA)” value was 3.1. In experiment [4], the “Stability (T1/2)” value was 24 h.
For FVSEKIFFV [SSX2 41-49 (K41F, A42V, Y48F)], the “Stability (T1/2)” value in [1] was 20 h. Further, in experiment [2], the 50% effective concentration (EC50) worked out at 8.8 µM and the “Relative affinity (1/RA)” value worked out at 1.7.
For FVSDKIFYV [SSX2 41-49 (K41F, A42V, E44D)], in experiment [2], the half-maximal effective concentration (EC50) came out at 13.2 µM and the “Relative affinity (1/RA)” value was determined as 1.1.
As for FISEKIFYV [SSX2 41-49 (K41F, A42I)], in experiment [3], the EC50 stood at 5.37 µM and the “Relative affinity (1/RA)” value was determined as 2.7. For the same molecule, the “Stability (T1/2)” value in [4] is greater than 24 h.
Take FVSEKVFYV [SSX2 41-49 (K41F, A42V, I46V)]: the “Stability (T1/2)” value in [1] came to 24 h.
Consider FVSEKLFYV [SSX2 41-49 (K41F, A42V, I46L)], for which the “Stability (T1/2)” value in experiment [1] stood at 24 h. Besides, in [2], the 50% effective concentration (EC50) came to 7.8 µM and the “Relative affinity (1/RA)” value was 1.9.
With FVSQKIFYV [SSX2 41-49 (K41F, A42V, E44Q)], in experiment [2], it took 40.8 µM to reach a half-maximal effect (EC50) and the “Relative affinity (1/RA)” value is 0.4.
Regarding WLSEKIFYV [SSX2 41-49 (K41W, A42L)], in [3], the half-maximal effective concentration (EC50) came to 4.47 µM and the “Relative affinity (1/RA)” value worked out at 3.3. Also, the “Stability (T1/2)” value in experiment [4] is greater than 24 h.
As to WMSEKIFYV [SSX2 41-49 (K41W, A42M)], in [3], a half-maximal response (EC50) required 5.13 µM and the “Relative affinity (1/RA)” value was determined as 2.9. Further, the “Stability (T1/2)” value in experiment [4] was greater than 24 h.
As to YVSEKIFYV [SSX2 41-49 (K41Y, A42V)], the “Stability (T1/2)” value in [4] is greater than 24 h.
For FVSEKIFTV [SSX2 41-49 (K41F, A42V, Y48T)], the “Stability (T1/2)” value in experiment [1] came to 24 h. In addition, in experiment [2], the EC50 was 3.9 µM and the “Relative affinity (1/RA)” value came to 3.8.
For FVSEKLFTV [SSX2 41-49 (K41F, A42V, I46L, Y48T)], in that order: 24 h, 5.67 µM and 2.6.
Turning to WVSEKIFYV [SSX2 41-49 (K41W, A42V)], in experiment [3], the 50% effective concentration (EC50) worked out at 4.82 µM and the “Relative affinity (1/RA)” value worked out at 3. The “Stability (T1/2)” value in [4] was greater than 24 h.
Consider YMSEKIFYV [SSX2 41-49 (K41Y, A42M)], for which, in experiment [3], a half-maximal response (EC50) required 25 µM and the “Relative affinity (1/RA)” value stood at 0.6. Besides, the “Stability (T1/2)” value in experiment [4] was greater than 24 h.
Consider FVSEKLFSA [SSX2 41-49 (K41F, A42V, I46L, Y48S, V49A)], for which, in experiment [2], the 50% effective concentration (EC50) was found to be 6.2 µM and the “Relative affinity (1/RA)” value was determined as 2.4.
As for YLSEKIFYV [SSX2 41-49 (K41Y, A42L)], in experiment [3], the response was half-maximal at 11.8 µM (EC50) and the “Relative affinity (1/RA)” value stood at 1.2. Moreover, the “Stability (T1/2)” value in [4] was greater than 24 h.
Turning to FVSEKIFSV [SSX2 41-49 (K41F, A42V, Y48S)], the “Stability (T1/2)” value in experiment [1] is 20 h. For the same molecule, in [2], the EC50 was found to be 3.8 µM and the “Relative affinity (1/RA)” value is 3.9.
On to FVSEKLFTA [SSX2 41-49 (K41F, A42V, I46L, Y48T, V49A)], for which the “Stability (T1/2)” value in [1] was 12 h.
Consider G[Nva]PSIPVHPV [PSMA288-297 analog with Nva at P2 and Val at PΩ], for which the binding result in [5] is recorded as “binds”.
In the case of A[Nva]PSIPVHPV [PSMA288-297 analog with Ala at P1, Nva at P2 and Val at PΩ], the binding result in experiment [6] is “binds”.
For the molecule G[Nva]PSIPVHPI [PSMA288-297 analog with Nva at P2], the binding result in experiment [7] was “binds”.
The same measure, in the same setting: for G[Abu]PSIPVHPI [PSMA288-297 analog with Abu at P2] the value was “binds”.
Turning to XLPSIPVHPI (aminobutyric acid (Abu) at P1, also called G288Abu) [PSMA288-297 analog with Abu at P1], the binding result in experiment [8] is recorded as “binds”.
As to ALPSIPVHP[Nva] [PSMA288-297 analog with Ala at P1 and Nva at PΩ], the binding result in experiment [5] is reported as “binds”.
On the same count and under the same terms, for GVPSIPVHP[Nva] [PSMA288-297 analog with Val at P2 and Nva at PΩ] the value was “binds”.
On to ALWSIPVHP[Nva] [PSMA288-297 analog with Ala at P1, Trp at P3 and Nva at PΩ], for which, in [6], the binding result was “binds”.
XASEKIFYV (β-(3-benzothienyl)-alanine at position 41 (P1)) [SSX2 41-49 (K41(b-(3-benzothienyl)Ala))]: in experiment [9], the response was half-maximal at 24.1 µM (EC50) and the “Relative affinity (1/RA)” value came out at 0.6.
As for FVS[Nle]KIFYV (also called FVS(Nle)KIFYV) [SSX2 41-49 (K41F, A42V, E44Nle)], in [2], a half-maximal response (EC50) required 13 µM and the “Relative affinity (1/RA)” value was found to be 1.1.
Regarding ALPSIPVHPI [PSMA288-297 analog with Ala at P1], the binding result in [8] is reported as “binds”.
As to GIPSIPVHPI [PSMA288-297 analog with Ile at P2], in [7], the binding result was “binds”.
In the case of AVPSIPVHPV [PSMA288-297 analog with Ala at P1, Val at P2 and Val at PΩ], the binding result in experiment [6] was “binds”.
For GVPSIPVHPI [PSMA288-297 analog with Val at P2], the binding result in experiment [7] is “binds”.
Consider GLPSIPVHSI [PSMA288-297 analog with Ser at PΩ-1], for which the binding result in experiment [8] is recorded as “binds”.
For GQPSIPVHPI [PSMA288-297 analog with Gln at P2], the binding result in experiment [7] is listed as “binds”.
Take SLPSIPVHPI [PSMA288-297 analog with Ser at P1]: the binding result in experiment [8] is reported as “binds”.
As to GLPSIPVHLI [PSMA288-297 analog with Leu at PΩ-1], in experiment [8], the binding result was “binds”.
Consider ALPSIPVHPV [PSMA288-297 analog with Ala at P1 and Val at PΩ], for which the binding result in experiment [5] was “binds”.
Consider ALWSIPVHPV [PSMA288-297 analog with Ala at P1, Trp at P3 and Val at PΩ], for which the binding result in experiment [6] is listed as “binds”.
In the case of GLPSIPVHAI [PSMA288-297 analog with Ala at PΩ-1], the binding result in [8] is on record as “binds”.
As for GLPSIPVHPL [PSMA288-297 analog with Leu at PΩ], the binding result in [7] is given as “binds”.
Regarding GLPSIPVHTI [PSMA288-297 analog with Thr at PΩ-1], in [8], the binding result is on record as “binds”.
In the case of FVSEKIF[Phg]V (also called FVSEKIF(Phg)V) [SSX2 41-49 (K41F, A42V, Y48Phg)], in experiment [1], the “Stability (T1/2)” value is greater than 24 h. Also, in experiment [2], the concentration giving a half-maximal response (EC50) was 5.85 µM and the “Relative affinity (1/RA)” value was found to be 2.5.
On to FVSEK[Nle]FYV (also called FVSEK(Nle)FYV) [SSX2 41-49 (K41F, A42V, I46Nle)], for which the response in [2] was half-maximal at 12.8 µM (EC50).
As to FVSEK[Nva]FYV (also called FVSEK(Nva)FYV) [SSX2 41-49 (K41F, A42V, I46Nva)], the “Stability (T1/2)” value in experiment [1] was greater than 24 h. Also, in [2], a half-maximal effect (EC50) was put at 6.21 µM and the “Relative affinity (1/RA)” value turned out to be 2.4.
Taken in the same sequence, the figures for FVSEKIFXV (4-fluorophenylalanine (Phe(4-F)) at position 48 (P8), also called FVSEKIF(Phe-4F)V) [SSX2 41-49 (K41F, A42V, Y48(Phe-4F))] were 24 h, 10.6 µM and 1.4.
Take GXPSIPVHPV (norleucine (Nle) at P2) [PSMA288-297 analog with Nle at P2 and Val at PΩ]: the binding result in experiment [5] was “binds”.
As to GLPSIPVHP[Nle] [PSMA288-297 analog with Nle at PΩ], the binding result in experiment [7] is recorded as “binds”.
As to XLPSIPVHPI (sarkosine (Sar, N-methylglycine) at P1) [PSMA288-297 analog with Sar at P1], the binding result in [8] was “binds”.
For the molecule [Abu]LPSIPVHPV [PSMA288-297 analog with Abu at P1 and Val at PΩ], in experiment [5], the binding result was “binds”.
Same read-out and setting: the value for XLPSIPVHPX (aminobutyric acid (Abu) at P1; norvaline (Nva) at PΩ (P10)) [PSMA288-297 analog with Abu at P1 and Nva at PΩ] was “binds”.

B1: SSX2 41-49 (K41(Phe-4N02)) (peptide)
peptide: [Phe(4-NO2)]ASEKIFYV
notes: also called para-nitrophenylalanine analog
Turning to B1, in experiment [9], the EC50 turned out to be 12.8 µM and the “Relative affinity (1/RA)” value was determined as 1.1.
